Article PMC6442233, “SAR and molecular mechanism studies of monoamine oxidase inhibition by selected chalcone analogs” (Journal of Enzyme Inhibition and Medicinal Chemistry, 2019)

B1: human MAO-B (Homo sapiens) (protein)
chain: MSNKCDVVVVGGGISGMAAAKLLHDSGLNVVVLEARDRVGGRTYTLRNQKVKYVDLGGSYVGPTQNRILRLAKELGLETYKVNEVERLIHHVKGKSYPFRGPFPPVWNPITYLDHNNFWRTMDDMGREIPSDAPWKAPLAEEWDNMTMKELLDKLCWTESAKQLATLFVNLCVTAETHEVSALWFLWYVKQCGGTTRIISTTNGGQERKFVGGSGQVSERIMDLLGDRVKLERPVIYIDQTRENVLVETLNHEMYEAKYVISAIPPTLGMKIHFNPPLPMMRNQMITRVPLGSVIKCIVYYKEPFWRKKDYCGTMIIDGEEAPVAYTLDDTKPEGNYAAIMGFILAHKARKLARLTKEERLKKLCELYAKVLGSLEALEPVHYEEKNWCEEQYSGGCYTTYFPPGILTQYGRVLRQPVDRIYFAGTETATHWSGYMEGAVEAGERAAREILHAMGKIPEDEIWQSEPESVDVPAQPITTTFLERHLPSVPGLLRLIGLTTIFSATALGFLAHKRGLLVRV
notes: purchased Sigma-Aldrich
B2: human MAO-A (Homo sapiens) (protein)
chain: MENQEKASIAGHMFDVVVIGGGISGLSAAKLLTEYGVSVLVLEARDRVGGRTYTIRNEHVDYVDVGGAYVGPTQNRILRLSKELGIETYKVNVSERLVQYVKGKTYPFRGAFPPVWNPIAYLDYNNLWRTIDNMGKEIPTDAPWEAQHADKWDKMTMKELIDKICWTKTARRFAYLFVNINVTSEPHEVSALWFLWYVKQCGGTTRIFSVTNGGQERKFVGGSGQVSERIMDLLGDQVKLNHPVTHVDQSSDNIIIETLNHEHYECKYVINAIPPTLTAKIHFRPELPAERNQLIQRLPMGAVIKCMMYYKEAFWKKKDYCGCMIIEDEDAPISITLDDTKPDGSLPAIMGFILARKADRLAKLHKEIRKKKICELYAKVLGSQEALHPVHYEEKNWCEEQYSGGCYTAYFPPGIMTQYGRVIRQPVGRIFFAGTETATKWSGYMEGAVEAGERAAREVLNGLGKVTEKDIWVQEPESKDVPAVEITHTFWERNLPSVSGLLKIIGFSTSVTALGFVLYKYKLLPRS
notes: purchased Sigma-Aldrich

Experiments:
[1] = substrate: CN1CC=C(c2cccn2C)CC1; assay: Spectrophotometric MAO-B assay with MMTP as substrate; format: biochemical, human; details: other: MMTP as substrate; 37.0 °C
[2] = substrate: CN1CC=C(c2cccn2C)CC1; assay: Spectrophotometric MAO-A assay with MMTP as substrate; format: biochemical, human; details: other: MMTP as substrate; 37.0 °C

Protein | Km [1] [µM] | Km [2] [µM]
B1 | 101 | –
B2 | – | 88
